Source: the supplement of paper PMC6757056
± gives the standard deviation of the averaged measurements.

B1: library; a variant is named by its letters at N, in order (parent)
chain: GCUGUCACCGGUGCUUGGUACGUUAUAUUCAGCCGGUCUGAUGAGUCUNNNNNNAGACGAAACAGC

Columns and labels:
[1] = variants of: B1; assay: normalized RNA/DNA level without ligand (relative to sTRSVctl = 100) (log10 (% of sTRSVctl)); HEK293T overexpressing SLC46A1; higher = less ribozyme self-cleavage, higher mRNA level; conditions: without (6R,S)-folinic acid; ligand present: no
How it was run: (§1)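 For each 6-well well, 4 µg of library plasmid encoding mCherry-linked ribozyme switches, or eGFP-linked ones in some ligand experiments, was transfected into HEK293T. Any ligand was added 1 h before transfection, and RNA was extracted with EDTA 72 h after it, then reverse-transcribed, amplified, barcoded and sequenced. RNA level was obtained by dividing RNA reads by DNA reads, normalizing to a spiked-in non-cleaving sequence or to the top sequences, then scaling and log-transforming. The top set was 25 sequences, scaling was ×100 with log10, and ≥100 DNA reads were required.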

[2] = variants of: B1; assay: normalized RNA/DNA level with ligand (relative to sTRSVctl = 100) (log10 (% of sTRSVctl)); HEK293T overexpressing SLC46A1; ligand concentration (+) RNA-Seq: 6 mM; higher = less ribozyme self-cleavage, higher mRNA level; conditions: with (6R,S)-folinic acid; ligand present: yes
How it was run: as §1

Variant	normalized RNA/DNA level without ligand (log10) [1]	normalized RNA/DNA level with ligand (log10) [2]
UGAUAG	1.7093 ± 0.0017	1.96 ± 0.049
CCUGCA	2.047 ± 0.0035	2.059 ± 0.0067
CGUCCG	2.04 ± 0.026	2.037 ± 0.015
GUCGGA	1.997 ± 0.0032	2.02 ± 0.045
GAAAGC	1.966 ± 0.0051	2.0058 ± 0.0012
AAACUU	2.007 ± 0.0031	2.02 ± 0.024
ACGAUU	2.0259 ± 0.00039	2.03 ± 0.026
UUCGUC	2.1 ± 0.024	2.06 ± 0.068
UUCGUU	2.009 ± 0.013	1.98 ± 0.042
GUGAGU	1.96 ± 0.025	2.03 ± 0.025
AGAUAG	1.9299 ± 0.00079	2.01 ± 0.041
AUCACU	2.029 ± 0.008	2.01 ± 0.03
AUCACG	1.969 ± 0.014	2.01 ± 0.043
AUACUA	1.97 ± 0.026	1.99 ± 0.025
UAUCCA	1.979 ± 0.0079	2.001 ± 0.0084
UUGAUU	2.017 ± 0.012	2.027 ± 0.013
UUUGGC	1.995 ± 0.0079	2.04 ± 0.027
UAGUUU	2.01 ± 0.0059	2.02 ± 0.033
UCUCCG	1.96 ± 0.065	2.022 ± 0.013
CGCCAU	1.986 ± 0.0097	1.98 ± 0.034
UCGUGA	1.955 ± 0.014	2.009 ± 0.0081
CUAGGA	2.016 ± 0.0053	2.01 ± 0.047
CGUACG	2.018 ± 0.011	2.0285 ± 0.0013
UUACCA	2.03 ± 0.0034	2.028 ± 0.016

Variant	normalized RNA/DNA level without ligand (log10) [1]	normalized RNA/DNA level with ligand (log10) [2]
GUACGC	2.01 ± 0.029	2.03 ± 0.026
CUUCGG	2.063 ± 0.0068	2.036 ± 0.0089
CCCCGG	2.083 ± 0.0038	2.06 ± 0.022
GCGGGG	2.054 ± 0.0092	2.055 ± 0.017
UGGCCC	2.059 ± 0.0063	2.06 ± 0.068
CUGUAC	1.992 ± 0.017	2.013 ± 0.013
ACCAGA	2.019 ± 0.013	2.05 ± 0.033
UACGAA	1.913 ± 0.0081	1.99 ± 0.03
ACUACA	1.99 ± 0.021	2.01 ± 0.021
UUUACG	1.859 ± 0.0091	1.98 ± 0.03
UGCUCA	1.982 ± 0.006	1.988 ± 0.013
UUGCCC	2.04 ± 0.031	2.03 ± 0.036
CUCGAC	2.017 ± 0.0083	2.01 ± 0.02
GCAAAC	1.974 ± 0.0046	2.02 ± 0.023
GCAAGC	2.011 ± 0.0087	2.023 ± 0.014
AUCGUG	1.906 ± 0.0026	2.01 ± 0.026
AGGGCC	2.07 ± 0.023	2.06 ± 0.06
ACUGGU	1.952 ± 0.016	2 ± 0.07
UGUAUA	1.953 ± 0.0013	2.01 ± 0.022
CCUAUA	2.029 ± 0.0081	2.01 ± 0.033
ACAAUU	2.018 ± 0.0076	2.044 ± 0.018
ACAAUC	2.043 ± 0.01	2.03 ± 0.031
UUAGCU	2.007 ± 0.0056	2.02 ± 0.047
CAAUGG	1.94 ± 0.0094	1.983 ± 0.0083

Variant	normalized RNA/DNA level without ligand (log10) [1]	normalized RNA/DNA level with ligand (log10) [2]
GGACUU	2.007 ± 0.0068	1.976 ± 0.016
CAUUAG	1.94 ± 0.037	1.985 ± 0.0055
GCCAAC	2.033 ± 0.02	2.055 ± 0.011
UCAUCA	2.05 ± 0.039	2.03 ± 0.044
CGAUAG	1.959 ± 0.0024	1.977 ± 0.01
CAACUC	2.06 ± 0.015	2.06 ± 0.024
GAGGGC	1.956 ± 0.011	2.04 ± 0.042
GGGACG	2.039 ± 0.01	2.06 ± 0.051
GGGACC	2.049 ± 0.0006	2.04 ± 0.024
UUGUUC	2.056 ± 0.017	2.08 ± 0.047
GAAGUC	2.05 ± 0.021	2.04 ± 0.026
CGACCG	1.991 ± 0.007	1.99 ± 0.018
UCUCGG	2.03 ± 0.034	2.042 ± 0.0089
CUCUAU	2.012 ± 0.0028	2.03 ± 0.049
CUCUAC	2.0423 ± 0.0006	2.04 ± 0.023
CGAAUU	2 ± 0.026	2.01 ± 0.037
CUACGA	2.045 ± 0.012	2.05 ± 0.028
CGCGAC	2.0427 ± 0.0011	2.04 ± 0.029
ACUGCU	2.0021 ± 0.002	2.008 ± 0.015
CCAAUG	1.998 ± 0.0065	2.022 ± 0.019
ACGCUG	2.015 ± 0.0048	2.057 ± 0.015
UAGUAC	1.972 ± 0.002	2.01 ± 0.048
ACCACA	2.021 ± 0.0096	2.01 ± 0.021
UGCCGU	2.009 ± 0.019	2.02 ± 0.042

Variant	normalized RNA/DNA level without ligand (log10) [1]	normalized RNA/DNA level with ligand (log10) [2]
GGCAAU	2.057 ± 0.01	2.04 ± 0.03
CGGUUC	2.02 ± 0.0095	2.01 ± 0.07
CUAGCU	2.033 ± 0.0023	1.993 ± 0.014
CACCUA	2.024 ± 0.005	2.06 ± 0.038
ACCUUC	2.038 ± 0.014	2.04 ± 0.045
CGUGGG	1.8506 ± 0.0006	1.98 ± 0.036
UCACCA	2.0085 ± 0.0017	2.006 ± 0.0035
CCUUGG	2.047 ± 0.016	2.01 ± 0.022
CCGGGU	2.07 ± 0.036	2.05 ± 0.04
CGCAGG	1.953 ± 0.012	2.03 ± 0.039
CGCAGA	2.039 ± 0.0068	2.051 ± 0.015
CUCAGA	2.048 ± 0.019	2.03 ± 0.07
CAUAGA	2.002 ± 0.0073	2.01 ± 0.033
CUGGAC	1.9905 ± 0.0006	2 ± 0.038
CAUGUC	2.03 ± 0.027	1.997 ± 0.0052
UCAACG	1.909 ± 0.0028	2 ± 0.034
UCAACA	1.987 ± 0.0049	2.017 ± 0.018
CAUCUA	2.05 ± 0.022	2.074 ± 0.012
CAGCGU	1.999 ± 0.0031	1.99 ± 0.053
UCCCGA	2.033 ± 0.008	2.07 ± 0.033
GCCCCA	2.031 ± 0.0049	2.01 ± 0.042
AUCUCU	2.02 ± 0.023	2.021 ± 0.0047
AGCCGC	2.037 ± 0.0083	2.02 ± 0.044
CAUACC	2.027 ± 0.004	2.03 ± 0.029

Variant	normalized RNA/DNA level without ligand (log10) [1]	normalized RNA/DNA level with ligand (log10) [2]
GAUGGA	1.987 ± 0.0081	2.02 ± 0.043
GGAACC	2.036 ± 0.01	2.04 ± 0.06
CGCCGC	2.062 ± 0.0024	2.03 ± 0.047
GUGAUC	2.03 ± 0.021	2.036 ± 0.02
GGGGCG	2.073 ± 0.016	2.06 ± 0.045
AACUGU	1.97 ± 0.016	2.007 ± 0.02
AUGCAG	1.92 ± 0.022	2 ± 0.032
CACGAG	1.917 ± 0.0095	2.003 ± 0.007
GGUUUC	2.021 ± 0.011	1.9966 ± 0.0012
CCAGUA	2.027 ± 0.0027	2.05 ± 0.044
ACUUCG	1.968 ± 0.0047	2.02 ± 0.029
UCACGA	2.019 ± 0.0037	2.03 ± 0.028
AUUACC	2.019 ± 0.0035	2 ± 0.025
GCGUGU	1.974 ± 0.0053	2.04 ± 0.053
AAUUUA	1.966 ± 0.012	1.99 ± 0.02
UCCGCU	2.068 ± 0.01	2.042 ± 0.015
UCCGCA	2.01 ± 0.03	2.01 ± 0.063
UGUCAA	1.968 ± 0.018	2.002 ± 0.014
GUUCGA	2.018 ± 0.0029	2.001 ± 0.015
CAAGGC	1.993 ± 0.019	1.99 ± 0.035
